Experimental data reported in US20250249111A1, “ERIBULIN-BASED ANTIBODY-DRUG CONJUGATES AND METHODS OF USE” (priority 2022, published 2025).

What was measured:
Assay type in all cases: in vivo, human
[1] = test system: platinum resistant ovarian cancer (PROC); experiment: Dose-response and exposure-response (E-R) analysis for ORR in subjects with PROC; conditions: for ORR (%): PROC
Description: MORAb-202 was administered to subjects (N=58) with platinum resistant ovarian cancer (PROC) over a body weight (BW)-based dose range of 0.3 to 1.2 mg/kg. All doses were administered at Q3W. A dose-response assessment was carried out to calculate a relationship between dose and objective response rate (ORR) over this dose range. Clinical pharmacology assessments were conducted to evaluate the dose relationships between MORAb-202 and objective response rates (ORR) or ILD. The dose-response relationships were calculated using logistic regression analyses. An E-R efficacy (ORR) analysis was conducted with PROC subjects (N=58) across the dose range of 0.3 to 1.2 mg/kg Q3W. […] Exposure (AUC) was the only significant predictor of the probability of an objective response in multivariate analysis (as shown in FIG. 1). Age, weight, non-high grade serous OC (versus high grade serous OC), ECOG-PS (1 vs 0), and expansion (versus dose escalation) were not significant predictors of an objective response (OR). Higher doses above 1.2 mg/kg Q3W would be expected to result in a higher probability of an OR, given linear PK and lack of saturation of OR across the current dose range. Based on the results of the E-R analysis, clinically meaningful efficacy is expected across the dose range of 0.68 to 1.2 mg/kg. However, as described in section 1.2.3, an overlapping AUC dependence to ILD is observed.

[2] = test system: subjects with PROC, endometrial cancer (EC), triple negative breast cancer (TNBC), and non-small cell lung cancer (NSCLC); experiment: Dose-response relationship for ILD across tumor types
Description: MORAb-202 was administered to subjects (N=82) with PROC, endometrial cancer (EC), triple negative breast cancer (TNBC), and non-small cell lung cancer (NSCLC) over a body weight (BW)-based dose range of 0.3 to 1.2 mg/kg. All doses were administered at Q3W. A dose-response assessment was carried out to calculate a relationship between dose and ILD rate over this dose range.
Clinical pharmacology assessments were conducted to evaluate the dose relationships between MORAb-202 and objective response rates (ORR) or ILD. The dose-response relationships were calculated using logistic regression analyses.

[3] = test system: subjects with PROC and across tumor types (PROC, EC, TNBC, and NSCLC); experiment: Exposure-response (E-R) analysis for ILD in subjects with PROC and across all tumor types; conditions: N=96 in total (48/96); PROC 0.3 to 1.2 mg/kg Q3W and across tumor types 0.9 to 1.2 mg/kg Q3W
Description: An E-R analysis of ILD was conducted with data from subjects with PROC across the dose range of 0.3 to 1.2 mg/kg Q3W as well as subjects across tumor types (PROC, EC, TNBC, and NSCLC) across the dose range of 0.9 to 1.2 mg/kg Q3W (N=96 in total). Forty-eight subjects had ILD identified by expert review for an ILD rate of 50% (48/96) across both subject groups and dose ranges. AUC and age were significant predictors in multivariate analysis with both higher AUC and higher age predicting a higher probability of ILD. Weight, albumin, ECOG-PS (1 vs 0), Study, and tumor type (OC vs other) were not significant predictors. The probability of ILD by AUC was predicted at the median age (60 years) and plotted along with the observed ILD rate for each exposure quartile (as shown in FIG. 2).

[4] = MORAb-202 population pharmacokinetics (PPK) model
Description: Different dosing regimens were simulated to select a dose of MORAb-202 that would minimize ILD rate while maintaining a high ORR. Stochastic simulations were conducted using the MORAb-202 population pharmacokinetics (PPK) model shown in Table 13 to predict AUC and Cmax for different dosing regimens. […] BW and serum albumin were significant covariates on CL (total clearance) and BW on volume of distribution. Five dosing regimens were simulated: 1) flat dose of 63 mg; 2) BW-based dose of 0.9 mg/kg; 3) BW-based dose of 0.9 mg/kg with a maximum total dose cap of 70 mg; 4) adjusted ideal body weight (AIBW)-based dose of 1.0 mg/kg; and 5) BSA-based dose of 33 mg/m^2 (equivalent to BW-based dose of 0.9 mg/kg). All dosing regimens were simulated on a Q3W treatment cycle.

[5] = test system: subjects with ovarian cancer (OC) and endometrial cancer (EC); experiment: Preliminary results from Phase 1/2 trial, BSA-based dosing cohorts
Source text: MORAb-202 will be administered as an intravenous (IV) infusion once every 3 weeks (21-day cycle). Treatment will stop upon intolerable toxicity, disease progression, or subject withdrawal for any reason. The Dose-Confirmation part will evaluate the safety and preliminary efficacy of MORAb-202 at selected dose levels in subjects with OC and EC. There will be approximately 30 subjects in the Dose-Confirmation part in 4 study treatment cohorts. If at any time ≥2 Grade ≥3 ILD/pneumonitis (National Cancer Institute Common Terminology Criteria for Adverse Events [NCI CTCAE v5.0]) events are observed, the sponsor will pause enrollment, pending IDMC review. The initial cohort will enroll 6 subjects at 25 mg/m^2 of MORAb-202. The dosing regimen for this study is body surface area (BSA)-based dosing. The dose levels to be used in this portion of the study have been matched to body weight doses of 0.9 mg/kg and 0.68 mg/kg with BSA doses of 33 mg/m^2 and 25 mg/m^2 respectively. The BSA dose equivalents were confirmed using predictions from a MORAb-202 population PK model (described in Example 1). This revised dosing regimen has been implemented in the Dose-Confirmation part of this study due to the potential to reduce the ILD risk in higher body weight subjects whilst using doses within the therapeutic index of MORAb-202. The dose evaluation part of the study was designed with two sequential cohorts at 25 mg/m^2 and 33 mg/m^2. Enrollment has been completed in the two sequential cohorts. A total of 14 subjects were enrolled and treated with MORAb-202 with 7 subjects in each cohort. Further investigation will continue at 25 mg/m^2 Q3W. […] BSA-based dosing decreased the total amount of drug (mg) compared with BW-based estimated total dose in most subjects. Additional testing is planned for every two weeks and for once per week dosing regimens.

[6] = PROC subjects (N=58), 0.3 to 1.2 mg/kg Q3W
[7] = BW-based dose 0.45 mg/kg Q3W, N = 3
[8] = BW-based dose 1.2 mg/kg Q3W, N = 24
[9] = 25 mg/m^2 Q3W, preliminary, 7 subjects per cohort

With MORAb-202 the ORR ([1]; PROC subjects (N=58) across the dose range of 0.3 to 1.2 mg/kg Q3W (23/58)) was 39.7%, the “subjects with a CR (complete response)” value [1, 6] was 2 and the “subjects with a PR (partial response)” value [1, 6] was “Twenty-one”. The “ORR (%)” value ([1]; BW-based dose 0.3 mg/kg Q3W, N = 1) was 0 (0) %, the “ORR (%)” value [1, 7] was 0 (0) % and the “ORR (%)” value ([1]; BW-based dose 0.68 mg/kg Q3W, N = 2) was 50%. For the same substance, the “ORR (%)” value ([1]; BW-based dose 0.9 mg/kg Q3W, N = 28, 0.9 mg/kg) was 32.1%, the “ORR (%)” value [1, 8] was 54.2% and the “ILD (%)” value ([2]; BW-based dose 0.3 mg/kg Q3W, N = 3) was 0 (0) %. The “ILD (%)” value [2, 7] was 0 (0) %, the “ILD (%)” value ([2]; BW-based dose 0.68 mg/kg Q3W, N = 6) was 16.7% and the “ILD (%)” value ([2]; BW-based dose 0.9 mg/kg Q3W, N = 46) was 37.0%. The “ILD (%)” value [2, 8] was 58.3%, the “ILD rate (ILD identified by expert review)” value [3] was 50% and the “dose proportionality of exposures” value ([4]; PPK analysis) was “dose proportional”. For the same substance, the “Inter-Individual Variabilty R CL-V1” value ([4]; final PPK model) was 0.577, the “Q, estimate” value ([4]; final PPK model) was 0.008039 L/h and the “Residual Additive (SD, ug/mL)” value ([4]; final PPK model) was 0.0992 µg/mL. For the same substance, the “V1, estimate” value ([4]; final PPK model) was 2.482 L, the “V2, estimate” value ([4]; final PPK model) was 1.875 L and the “CL (total clearance), estimate” value ([4]; final PPK model, 2-compartment, IV infusion) was 0.01595 L/h. The “BW on V1 (exponent), estimate” value ([4]; final PPK model, covariate) was 0.559, the “Mean PK profiles compared with those of a 0.68 mg/kg dose” value ([5]; 25 mg/m^2, MORAb-202, total antibody, and released eribulin) was “comparable” and the anti-tumor activity [5, 9] was “initial anti-tumor activity”. For the same substance, the safety [5, 9] was “Acceptable safety”.
